Reference: US20250027955A1, “ETHYLENE RECEPTORS AND BINDING DOMAINS WITH MODIFIED BINDING KINETICS FOR ETHYLENE” (Trustees of Dartmouth College, priority 2022, published 2025)

B1: ETR1^D25N: ETR1 with site-directed mutation Asp25Asn, carboxylic acid changed to carboxamide (protein, UniProt P49333 1-738, looked up, variant D25N)
Ethylene receptor 1: MEVCNCIEPQWPADELLMKYQYISNFFIAIAYFSIPLELIYFVKKSAVFPYRWVLVQFGAFIVLCGATHLINLWTFTTHSRTVALVMTTAKVLTAVVSCATALMLVHIIPDLLSVKTRELFLKNKAAELDREMGLIRTQEETGRHVRMLTHEIRSTLDRHTILKTTLVELGRTLALEECALWMPTRTGLELQLSYTLRHQHPVEYTVPIQLPVINQVFGTSRAVKISPNSPVARLRPVSGKYMLGEVVAVRVPLLHLSNFQINDWPELSTKRYALMVLMLPSDSARQWHVHELELVEVVADQVAVALSHAAILEESMRARDLLMEQNVALDLARREAETAIRARNDFLAVMNHEMRTPMHAIIALSSLLQETELTPEQRLMVETILKSSNLLATLMNDVLDLSRLEDGSLQLELGTFNLHTLFREVLNLIKPIAVVKKLPITLNLAPDLPEFVVGDEKRLMQIILNIVGNAVKFSKQGSISVTALVTKSDTRAADFFVVPTGSHFYLRVKVKDSGAGINPQDIPKIFTKFAQTQSLATRSSGGSGLGLAISKRFVNLMEGNIWIESDGLGKGCTAIFDVKLGISERSNESKQSGIPKVPAIPRHSNFTGLKVLVMDENGVSRMVTKGLLVHLGCEVTTVSSNEECLRVVSHEHKVVFMDVCMPGVENYQIALRIHEKFTKQRHQRPLLVALSGNTDKSTKEKCMSFGLDGVLLKPVSLDNIRDVLSDLLEPRVLYEGM

Legend:
[1] = test system: Arabidopsis seedlings, etr1 etr2 ein4 background; experiment: Short-term kinetic analysis of hypocotyl growth response to ethylene; type: in vivo; settings: for short-term hypocotyl growth response to ethylene: 10 μL/L ethylene for 2 hr; for growth recovery upon ethylene removal: after 2 hr of 10 μL/L ethylene, 5-hr recovery in air
Description: Based on the differences Applicant uncovered for the long-term ethylene growth responses for the Asp25 mutants, Applicant also analyzed their short-term hypocotyl growth and molecular responses to ethylene. To this end, Applicant performed a short-term kinetic analysis, analyzing the initial hypocotyl growth inhibition in response to 10 μL/L ethylene and the growth recovery following the removal of ethylene after two hours of treatment (FIG. 6A).
(§1) All Arabidopsis lines were of the Columbia (Col-0) accession. The etr1-1 and etr1-6 etr2-3 ein4-4 mutant lines have been described. Analysis of the triple response of dark-grown Arabidopsis seedlings to ethylene was performed as described previously. Briefly, seedlings were grown at 22° C. on vertically oriented plates on half-strength Murashige and Skoog basal medium with Gamborg's vitamins (pH 5.75; Sigma), 0.8% (w/v) agar, and 5 μM aminoethoxyvinylglycine (AVG) to inhibit ethylene biosynthesis. The stratified seed was exposed to light for 8 hr and then moved to the dark in the presence or absence of ethylene, with analysis of the seedling growth being performed following 4 days total growth. For short-term kinetic analysis of dark-grown seedlings, time-lapse imaging and growth rate analysis of hypocotyls were carried out as described previously.

[2] = Copper binding assay: purified ETR1 transmembrane domain titrated to BCA2-Cu(I) complex, absorbance at 562 nm; settings: ETR1-TMD expressed and purified from E. coli; Cu(I) stabilized by BCA
From the text: Cu(I) was stabilized by the copper chelator BCA, and then titrated with increasing ETR1 protein concentration.
Titration curves were corrected for nonspecific binding observed with chemically and thermally denatured receptor to maximize signal to background levels.

[3] = Saturable [14C]ethylene binding to yeast transgenically expressing ETR1; parameters: species or system Saccharomyces cerevisiae; settings: for saturable [14C]ethylene binding: 0.21 μL L^−1 [14C]ethylene, with or without excess [12C]ethylene
From the text: Saturable ethylene binding of the ETR1 Asp25 mutants was examined by heterologous expression in yeast, with binding to [^14C]ethylene determined in the presence or absence of excess [^12C]ethylene (FIG. 2C). […] This included the ETR1^D25A mutant, consistent with previous observations, as well as for the ETR1^D25N and ETR1^D25Q mutants (FIG. 2C). Results from the ethylene binding assay are therefore consistent with the negative charge at D25 playing a significant role in mediating high-affinity ethylene binding.
[^14C]ethylene (specific activity=116 mCi/mmol) was obtained from ViTrax Radiochemicals (Placentia, CA) and trapped as the mercuric perchlorate complex as described. For ethylene binding assays in yeast, ETR1 was expressed in the yeast Saccharomyces cerevisiae (strain FY834) using the vector pYcDE-2 and a constitutive ADC1 promoter. The yeast growth media was supplemented with 40 μg L^−1 copper sulfate. Saturable ethylene binding to yeast was determined by analyzing binding of 0.3 g yeast per sample to 0.21 μL L^−1 [^14C]ethylene, in the presence or absence of excess [^12C]ethylene.

[4] = test system: Arabidopsis seedlings, etr1 etr2 ein4 background; experiment: Triple-response hypocotyl growth assay of dark-grown seedlings expressing ETR1 transgenes; type: in vivo; settings: for rescue of growth of etr1 etr2 ein4 triple mutant in air: absence of ethylene, hypocotyl and adult shoot growth
Description: Functionality of the ETR1 Asp25 mutants was tested by transgenic expression in the etr1 etr2 ein4 Arabidopsis background.
Applicant can thus exploit the triple mutant to assess the ability of the ETR1 transgenes to rescue growth in the absence of ethylene as well as their ability to mediate a response to ethylene. Such an analysis indicates whether the encoded receptors are able to assume the ‘on’ conformation that represses the ethylene response in air, as well as the ‘off’ conformation that occurs in response to ethylene binding.
as §1

[5] = test system: dark-grown Arabidopsis seedlings; experiment: Silver sensitivity assay: effect of silver on ethylene response of dark-grown seedlings; type: in vivo; settings: transgene in etr1 etr2 ein4 background, 10 μL/L ethylene
From the text: As an initial test for the feasibility of the first hypothesis, Applicant asked if ETR1^D25N could still bind a metal cofactor, and therefore potentially ethylene, in planta. For this purpose, Applicant examined the effects of silver (Ag) on ethylene sensitivity. Silver is thought to substitute for the copper cofactor and, although receptors containing silver can still bind ethylene, they no longer transmit the signal, resulting in ethylene insensitivity.

[6] = test system: OSR1, ERF1, EXP5 and EXPb1 expression; experiment: Ethylene-dependent gene expression by RT-qPCR; type: in vivo, Arabidopsis; settings: 0 or 1 μL L^−1 ethylene for 2 hr
Description: To examine the short-term molecular response, Applicant characterized ethylene-dependent gene expression for the ETR1 Asp25 mutants (FIG. 6B). Expression of OSR1 and ERF1 is induced, whereas the expression of EXP5 and EXPb1 is repressed, in response to ethylene.
RNA isolation and RT-qPCR was performed with three biological replicates and two technical replicates of each.

[7] = Saturable [14C]ethylene binding of Arabidopsis seedlings (in planta); settings: two-week-old green seedlings, 0.31 μL L^−1 [14C]ethylene, 5 μM AVG
Description: [^14C]ethylene binding was examined in two-week-old green seedlings grown on media containing 5 μM aminoethoxyvinylglycine (AVG) to inhibit ethylene biosynthesis.
For ethylene binding assays with Arabidopsis seedlings, two-week-old green seedlings were used that had been grown on media containing 5 μl M AVG to inhibit ethylene biosynthesis, with ˜1 g seedlings per sample. The fresh weight of seedlings was determined, and each sample packaged into bags formed from a layer of cheese cloth and stapled at the top. Humidity was maintained in the ethylene binding chambers by use of moistened paper towels. Saturable ethylene binding was determined by analyzing binding to 0.31 μL L^−1 [^14C]ethylene, in the presence or absence of excess [^12C]ethylene.

[8] = test system: Arabidopsis seedlings, etr1 etr2 ein4 ers1 ers2 background; experiment: Ethylene and 1-MCP response of ETR1^D25N lines lacking all five native ethylene receptors; type: in vivo; settings: 1 μM ethylene

Molecule | short-term hypocotyl growth response to ethylene [1] | growth recovery upon ethylene removal [1] | copper binding [2] | saturable [14C]ethylene binding [3] | rescue of growth of etr1 etr2 ein4 triple mutant in air [4] | ability of silver to block the ethylene response in transgene lines [5] | molecular response to ethylene (ethylene-dependent gene expression) [6] | ethylene binding in planta versus etr1 etr2 ein4 basal level [7] | effect of 1-MCP on ethylene response ([8]; ETR1^D25N (etr1 etr2 ein4 ers1 ers2) lines, 1 μM 1-MCP) | response to ethylene without other native receptors ([8]; etr1 etr2 ein4 ers1 ers2 lines #11 and #15) | koff increase ([3]; relative to ETR1^wt, suggested by inability to detect [14C]ethylene binding) | hypocotyl growth response to ethylene ([4]; dark-grown seedlings, 0 or 1 μL L^−1 ethylene)
ETR1^wt: wild-type ethylene receptor ETR1 of Arabidopsis | rapid growth response to ethylene | growth recovery intermediate between that exhibited by the wild-type and the etr1 etr2 ein4 seedlings | copper binding | Saturable binding | rescued growth | restores the ability of silver to block the ethylene response | consistent with what is observed in the wild-type control | significant increase in ethylene binding | – | – | – | –
CC1=CC1 [1-methylcyclopropene, reference compound] | – | – | – | – | – | – | – | – | blocked | – | – | –
B1 | rapid growth response to ethylene | growth recovery intermediate between that exhibited by the wild-type and the etr1 etr2 ein4 seedlings | minimal residual binding | No saturable [^14C]ethylene binding was detected | rescued growth | restores the ability of silver to block the ethylene response | consistent with what is observed in the wild-type control | no increase in ethylene binding | – | still responded to ethylene | at least 100 fold | rescued the hypocotyl growth response to ethylene to the same degree as ETR1^wt
